# In publication PMC5004899, “Architecture of the caveolar coat complex” (Journal of Cell Science, 2016):
# Molecular target: the molecule itself
# Assay: cross-linking; DSP cross-linking in live HeLa cells; purified 80S-CCC; partial reduction of DSP crosslinks by titration of DTT; western blots
protein,measurement,value
"cavin-1 (natural protein, human (endogenous in HeLa), UniProt Q6NZI2-1 1-390, looked up, DSP-modified lysine residues (seven of 11 lysines in the HR1 domain, six of 17 in the HR2 domain; marked in Fig. 1D), human cavin-1 (PTRF), NP_036364.2; HR1 domain amino acids 49-163, HR2 domain amino acids 210-300; Detected with rabbit anti-PTRF (Abcam ab48824); also called PTRF; source: endogenous, HeLa lysate (cells DSP-cross-linked alive)) MEDPTLYIVERPLPGYPDAEAPEPSSAGAQAAEEPSGAGSEELIKSDQVNGVLVLSLLDKIIGAVDQIQLTQAQLEERQAEMEGAVQSIQGELSKLGKAHATTSNTVSKLLEKVRKVSVNVKTVRGSLERQAGQIKKLEVNEAELLRRRNFKVMIYQDEVKLPAKLSISKSLKESEALPEKEGEELGEGERPEEDAAALELSSDEAVEVEEVIEESRAERIKRSGLRRVDDFKKAFSKEKMEKTKVRTRENLEKTRLKTKENLEKTRHTLEKRMNKLGTRLVPAERREKLKTSRDKLRKSFTPDHVVYARSKTAVYKVPPFTFHVKKIREGQVEVLKATEMVEVGADDDEGGAERGEAGDLRRGSSPDVHALLEITEESDAVLVDKSDSD",stoichiometry N,3
